In publication PMC4361584, “Glyceraldehyde 3-Phosphate Dehydrogenase-Telomere Association Correlates with Redox Status in Trypanosoma cruzi”:

Columns and labels:
[1] = target: T1, rTcGAPDH (glyceraldehyde 3-phosphate dehydrogenase) (Trypanosoma cruzi, UniProt P22513 1-359); experiment: EMSA; supershift with anti-GAPDH serum; 1x from 5x buffer: 20 mM HEPES pH 6.0, 1 mM EDTA, 10 mM (NH4)2SO4, 1 mM DTT, 0.2% Tween 20, 30 mM KCl; 0.1 ug poly-lysine, 1 ug poly[d(I-C)], 20 ul, on ice 15 min; 6% native gel, 0.25x TBE; settings: protein: recombinant; tags: His-tag; chain copies: 4; label: DIG-11-ddUTP at 3' end (terminal transferase); single strand
[2] = target: T1, rTcGAPDH (glyceraldehyde 3-phosphate …); experiment: EMSA; 50 uM GAPDH; 1x from 5x buffer: 20 mM HEPES pH 6.0, 1 mM EDTA, 10 mM (NH4)2SO4, 1 mM DTT, 0.2% Tween 20, 30 mM KCl; 0.1 ug poly-lysine, 1 ug poly[d(I-C)], 20 ul, on ice 15 min; 6% native gel, 0.25x TBE; settings: protein: recombinant; tags: His-tag; chain copies: 4; label: DIG-11-ddUTP at 3' end; single strand

T1 sequence (P22513 whole entry): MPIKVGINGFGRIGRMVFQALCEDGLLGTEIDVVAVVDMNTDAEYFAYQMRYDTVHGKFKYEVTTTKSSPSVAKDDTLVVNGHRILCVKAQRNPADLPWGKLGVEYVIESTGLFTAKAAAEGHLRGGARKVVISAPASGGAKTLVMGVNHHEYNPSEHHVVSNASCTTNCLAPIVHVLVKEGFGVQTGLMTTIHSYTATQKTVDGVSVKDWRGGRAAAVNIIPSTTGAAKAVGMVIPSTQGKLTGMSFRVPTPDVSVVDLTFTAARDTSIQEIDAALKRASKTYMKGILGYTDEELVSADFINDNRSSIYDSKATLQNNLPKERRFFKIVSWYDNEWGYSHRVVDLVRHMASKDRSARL

## TTAGGGTTAGGGTTAGGGTTAGGGTTAGGGTTAGGG (ssDNA) [ss (TTAGGG)6]
[1]
  binding result: binds

## TTAGGGTTAGGGTTAGGG (ssDNA) [ss (TTAGGG)3]
[2]
  binding result: binds

## TTAGGG (ssDNA) [ss (TTAGGG)1]
[2]
  binding result: binds
